Source: patent US10058586B2, “Use of human small leucine zipper protein in adipocyte differentiation procedure” (Korea University Research and Business Foundation, priority 2013, dated 2018)

Legend:
[1] = test system: FABP4 and other PPARγ2 target genes; experiment: RT-PCR and real-time PCR of PPARγ2 target genes in differentiated preadipocytes of sLZIP TG mice; assay type: cell-based, mouse; details: sLZIP TG mice preadipocytes differentiated into adipocytes
Procedure: According to instructions of the manufacturer, a TRIzol reagent (Invitrogen, Carlsbad, Calif.) was added to directly lyse cells in a culture dish. Accupower RT PreMix (BioNeer, Daejeon, Korea) was used to synthesize cDNA from 2 μg of total RNA. A reaction was performed for 60 minutes at 42° C. and for 5 minutes at 94° C. PCR amplification was performed using oligomers listed in Table 2 and a Hipi PCR Mix Kit (ELPIS). As an internal control group, GAPDH was amplified. A PCR product was subjected to electrophoresis in 1-2% (w/v) agarose gel containing 0.5 μg/mL ethidium bromide. A size of the PCR product was measured by comparing it with 1 kb DNA ladder marker (Invitrogen). An intensity of bands amplified according to RT-PCR was analyzed using MultiImage™ Light Cabinet (version 5.5, Alpha Innotech Corp., San Leandro, Calif.).
Real-time PCR was performed in LightCycler 480 using a SYBR Green Master Mix (Roche, Mannheim, Germany). β-actin was used as an internal control group. A target gene expression level rate with respect to β-actin was calculated using CT method. A Ct value is defined as a PCR cycle number at which a fluorescence signal reaches a fixed target threshold. Experiments were technically repeated three times for each experiment.
Adipocyte differentiation is a well-regulated procedure. […] A promoter activity was measured according to luciferase analysis (FIG. 8B). […]

PPARγ2 = molecular target: T1, PPARγ2 (Mus musculus, UniProt P37238); experiment: FABP4-Luc stable C3H10T1/2 cells infected with sLZIP-expressing adenovirus and differentiated into adipocytes; assay type: cell-based; details: sLZIP adenovirus, differentiated into adipocytes for 4 days
T1 construct: endogenous in cells
T1 sequence (P37238 1-505): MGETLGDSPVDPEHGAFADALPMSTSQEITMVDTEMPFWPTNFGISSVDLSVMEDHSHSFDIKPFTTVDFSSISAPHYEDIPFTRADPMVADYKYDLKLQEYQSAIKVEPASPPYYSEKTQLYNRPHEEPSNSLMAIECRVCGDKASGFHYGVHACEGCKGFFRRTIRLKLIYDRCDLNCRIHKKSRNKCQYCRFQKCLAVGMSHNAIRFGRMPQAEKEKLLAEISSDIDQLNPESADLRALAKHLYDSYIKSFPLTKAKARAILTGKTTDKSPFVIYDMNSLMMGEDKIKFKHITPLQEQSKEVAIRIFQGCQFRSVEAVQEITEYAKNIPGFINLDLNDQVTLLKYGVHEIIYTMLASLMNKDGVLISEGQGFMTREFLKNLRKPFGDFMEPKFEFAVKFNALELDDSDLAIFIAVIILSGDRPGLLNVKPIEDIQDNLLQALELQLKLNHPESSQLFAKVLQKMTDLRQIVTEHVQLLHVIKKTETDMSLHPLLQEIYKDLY

B1: sLZIP: human small leucine-zipper protein, isoform of LZIP, 354 amino acids, no transmembrane domain; GenBank FJ263669, SEQ ID NO: 1 (protein, listed as Homo sapiens)
chain: MELELDAGDQDLLAFLLEESGDLGTAPDEAVRAPLDWALPLSEVPSDWEVDDLLCSLLSPPASLNILSSSNPCLVHHDHTYSLPRETVSMDLESESCRKEGTQMTPQHMEELAEQEIARLVLTDEEKSLLEKEGLILPETLPLTKTEEQILKRVRRKIRNKRSAQESRRKKKVYVGGLESRVLKYTAQNMELQNKVQLLEEQNLSLLDQLRKLQAMVIEISNKTSSSSMYSSDTRGSLPAEHGVLSRQLRALPSEDPYQLELPALQSEVPKDSTHQWLDGSDCVLQAPGNTSCLLHYMPQAPSAEPPLEWPFPDLFSEPLCRGPILPLQANLTRKGGWLPTGSPSVILQDRYSG
In the case of B1, the “expression of FABP4 and other PPARγ2 target genes (C/EBPα, LPL) mRNA” value [1] is reported as “down-regulated” and the “transcriptional activity of PPARγ2 (relative luciferase activity)” value (PPARγ2) is reported as “the transcriptional activity of PPARγ2 decreased in adipocytes”.
